Reference: patent publication US8802376B2, “Methods for identifying candidate cytotoxic antibody molecules” (Agency for Science, Technology and Research, priority 2010, dated 2014)

Experiments:
[1] = system: human embryonic stem cells (hESC); assay: inhibition of mAb84 binding to hESC by soluble trisaccharide; type: cell-based; details: trisaccharide 0.4 mM, 0.8 mM, 2 mM, 4 mM; mAb84 (25 pM, 5 μg) in 200 μl, 2×10^5 hESC
Description: (§1) The importance of the trisaccharide Fucα1-2Galβ1-3GlcNA in mediating the cytotoxic interaction of mAb84 on human embryonic stem cells (hESC) was investigated by assessing the ability of synthetic soluble trisaccharide Fucα1-2Galβ1-3GlcNA to (i) inhibit the binding of mAb84 to hESC and (ii) reduce the cytotoxic effect of mAb84 on hESC.
(§2) mAb84 (25 pM, 5 μg) in 200 μl volume was added to 2×10^5 hESC and preincubated for 15 minutes prior to addition of synthetic soluble trisaccharide Fucα1-2Galβ1-3GlcN (in concentrations of 0 (control), 0.4 mM, 0.8 mM, 2 mM, 4 mM).

[2] = system: human embryonic stem cells (hESC); assay: relative viability of hESC in response to mAb84 with added trisaccharide; type: cell-based
Description: as §1, §2

[3] = Printed Glycan Array V4.1 (Consortium for Functional Glycomics) binding
Description: Buffers: • TSM=20 mM Tris-HCl, pH 7.4 150 mM NaCl, 2 mM CaCl2, 2 mM MgCl2 • TSM Wash Buffer (TSMW)=TSM Buffer+0.05% Tween-20 • TSM Binding Buffer (TSMBB)=TSM buffer+0.05% Tween 20+1% BSA
Protocol: • 1. Make working stocks of washing buffers (TSM, TSM Wash Buffer, and H2O) or collect reagents and bring to room temperature if they have been in the refrigerator. • 1.1. Buffer (A) TSM-20 mM Tris-HCl, pH 7.4 150 mM NaCl, 2 mM CaCl2, 2 mM MgCl2 • 1.2. Buffer (B) TSM Wash Buffer (TSMW)—TSM Buffer+0.05% Tween-20 • 1.3. Buffer (C) TSM Binding Buffer (TSMBB)—TSM buffer+0.05% Tween 20+1% BSA • 1.4. dH20 • 2. Prepare 100 μl of sample by diluting antibody in TSMBB or appropriate Binding Buffer based on properties of Antibody to a final concentration of 5-50 μg/ml or an appropriate concentration required for the analysis. • mAb84 antibodies were added at a concentration of 50 μg/ml. • mAb85 antibodies were added at a concentration of 50 μg/ml. • 3. Remove slide(s) from dessicator and label slide with sample name near barcode, outside of the black marks. • 4. […]
mAb84 antibodies were contacted with the glycans. […] Bound antibodies were detected using AlexaFluor-488-labeled secondary antibodies as described above. The secondary antibodies were then detected using a fluorescence scanner. Binding is presented in relative fluorescence units (RFU). […]

[4] = biological target: T1, PODXL on the surface of hESCs (Homo sapiens, UniProt O00592); assay: kinetics of mAb84 binding to PODXL on the surface of hESCs
T1 construct: mAb 84 only detected hESC—PODXL but not expressed PODXL; endogenous in cells; host or cells: hESC (HES-3)
T1 sequence (O00592 23-558): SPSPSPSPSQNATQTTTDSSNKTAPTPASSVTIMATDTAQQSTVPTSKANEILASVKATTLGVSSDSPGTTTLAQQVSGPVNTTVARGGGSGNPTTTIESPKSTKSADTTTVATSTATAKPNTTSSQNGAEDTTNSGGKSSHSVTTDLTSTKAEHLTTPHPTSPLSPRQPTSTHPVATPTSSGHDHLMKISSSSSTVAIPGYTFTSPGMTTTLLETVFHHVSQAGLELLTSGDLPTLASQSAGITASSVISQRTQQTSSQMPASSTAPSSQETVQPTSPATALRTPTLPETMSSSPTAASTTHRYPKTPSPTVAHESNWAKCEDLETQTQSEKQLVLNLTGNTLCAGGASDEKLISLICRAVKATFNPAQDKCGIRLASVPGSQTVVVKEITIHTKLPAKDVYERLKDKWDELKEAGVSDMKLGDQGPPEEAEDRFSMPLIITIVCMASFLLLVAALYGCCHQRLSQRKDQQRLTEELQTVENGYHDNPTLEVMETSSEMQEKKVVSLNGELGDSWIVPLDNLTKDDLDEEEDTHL

IPSCs = details: WO/2010/033084; cited from earlier work
[5] = biological target: T2, PODXL over-expressed in HEK and COS cells (Homo sapiens, UniProt O00592); assay: Western blot of COS and HEK expressed PODXL probed with antibodies; type: binding; details: SDS-PAGE
T2 construct: expressed in transfected cells; host or cells: HEK or COS cells
T2 sequence (O00592 23-558): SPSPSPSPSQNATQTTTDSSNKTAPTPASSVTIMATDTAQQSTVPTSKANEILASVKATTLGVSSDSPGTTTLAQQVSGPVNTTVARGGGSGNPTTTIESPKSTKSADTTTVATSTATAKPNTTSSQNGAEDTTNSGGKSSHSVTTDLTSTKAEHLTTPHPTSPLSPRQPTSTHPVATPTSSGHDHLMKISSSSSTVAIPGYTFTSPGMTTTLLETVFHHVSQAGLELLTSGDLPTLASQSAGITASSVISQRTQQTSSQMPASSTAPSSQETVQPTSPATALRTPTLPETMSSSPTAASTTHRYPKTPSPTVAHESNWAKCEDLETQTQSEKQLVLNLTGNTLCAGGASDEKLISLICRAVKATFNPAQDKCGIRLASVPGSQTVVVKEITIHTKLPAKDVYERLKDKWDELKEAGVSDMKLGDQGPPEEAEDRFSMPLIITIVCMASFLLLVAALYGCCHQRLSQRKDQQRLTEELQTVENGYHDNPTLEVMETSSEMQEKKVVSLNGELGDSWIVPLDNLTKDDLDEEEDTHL
From the text: (§3) The gene encoding PODXL was isolated and sequenced from hESC. The gene was cloned into vectors and expressed either unglycosylated (in vitro TnT) or in mammalian cells (HEK or COS cells which are capable of glycosylating the expressed protein).
(§4) The proteins obtained were then resolved on SDS-PAGE, Western blotted and probed with antibodies. The antibodies used were commercially available anti-PODXL antibodies (monoclonal and polyclonal) and mAb 84. […] For COS and HEK expressed PODXL, only monoclonal anti-PODXL detected both the expressed PODXL and PODXL from hESC.

FGF2-starved hESC = assay: mAb 84-mediated killing on FGF2-starved hESC; type: cell-based, human
day 8 embyroid bodies = assay: mAb 84 binding reactivity to embryoid bodies; type: cell-based, human
[6] = biological target: T3, unglycosylated PODXL (in vitro transcription and translation (TnT)) (Homo sapiens, UniProt O00592); assay: Western blot of in vitro TnT-expressed PODXL probed with antibodies; type: binding; details: SDS-PAGE
T3 construct: made in house; host or cells: in vitro transcription and translation (cell-free)
T3 sequence (O00592 23-558): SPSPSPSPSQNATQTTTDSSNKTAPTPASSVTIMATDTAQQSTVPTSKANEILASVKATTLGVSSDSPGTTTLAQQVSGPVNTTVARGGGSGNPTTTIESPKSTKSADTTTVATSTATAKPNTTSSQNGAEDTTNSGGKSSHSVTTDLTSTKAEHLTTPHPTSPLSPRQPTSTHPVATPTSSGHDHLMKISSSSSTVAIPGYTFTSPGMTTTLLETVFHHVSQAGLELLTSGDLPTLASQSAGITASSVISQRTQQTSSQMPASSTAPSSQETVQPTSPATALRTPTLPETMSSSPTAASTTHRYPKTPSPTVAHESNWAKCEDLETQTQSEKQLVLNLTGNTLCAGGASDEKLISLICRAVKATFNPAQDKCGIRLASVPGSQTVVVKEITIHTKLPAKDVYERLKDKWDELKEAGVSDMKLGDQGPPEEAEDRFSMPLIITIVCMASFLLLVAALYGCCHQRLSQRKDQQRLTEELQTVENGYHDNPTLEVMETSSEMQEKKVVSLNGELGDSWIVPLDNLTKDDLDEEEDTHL
From the text: as §3, §4

[7] = system: undifferentiated human embryonic stem cells (hESC); details: cited from earlier work
PODXL from hESC (HES-3) = biological target: T4, PODXL from hESC (HES-3) (Homo sapiens, UniProt O00592); assay: Western blot of PODXL from hESC probed with antibodies; type: binding; details: SDS-PAGE
T4 construct: mAb 84 only detected hESC—PODXL but not expressed PODXL; endogenous in cells; host or cells: hESC (HES-3)
T4 sequence (O00592 23-558): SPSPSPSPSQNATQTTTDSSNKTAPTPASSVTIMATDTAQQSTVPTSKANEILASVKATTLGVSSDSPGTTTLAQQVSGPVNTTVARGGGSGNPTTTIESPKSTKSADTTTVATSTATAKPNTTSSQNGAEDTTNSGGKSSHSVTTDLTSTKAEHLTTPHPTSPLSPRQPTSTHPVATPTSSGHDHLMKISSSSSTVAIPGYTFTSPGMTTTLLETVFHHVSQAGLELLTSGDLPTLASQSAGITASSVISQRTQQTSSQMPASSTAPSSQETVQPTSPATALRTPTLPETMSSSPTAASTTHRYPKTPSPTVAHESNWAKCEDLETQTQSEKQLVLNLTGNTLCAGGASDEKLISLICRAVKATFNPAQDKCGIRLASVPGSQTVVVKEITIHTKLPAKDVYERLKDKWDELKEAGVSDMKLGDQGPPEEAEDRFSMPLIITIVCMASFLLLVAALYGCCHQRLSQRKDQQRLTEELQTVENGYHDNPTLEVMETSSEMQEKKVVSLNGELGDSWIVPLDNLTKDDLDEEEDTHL
From the text: as §3, §4
In either COS or HEK cells, PODXL is glycosylated (and so has a higher MW). However the band is lower than PODXL expressed in hESC (HES-3). Also, mAb 84 only detected hESC—PODXL but not expressed PODXL. This led to the conclusion that there is a stem cell-specific modification (glycosylation) to PODXL. Without being bound by theory, it appears that when PODXL is glycosylated by stem cells the resulting glycan structure is different that of PODXL glycosylated by other cells.

hESC = hESC treated with mAb 84 prior to transplantation into SCID mice; cited from earlier work
day 22 EB = assay: mAb 84-mediated killing on day 22 EB; type: cell-based, human

Row | Molecule | inhibition of mAb84 binding to hESC [1] | cytotoxic effect of mAb84 on hESC (relative viability) ([2]; increasing concentrations of trisaccharide 0.4 mM, 0.8 mM, 2 mM, 4 mM) | cytotoxic effect of mAb84 on hESC (relative viability) ([2]; trisaccharide 2 mM) | cytotoxic effect of mAb84 on hESC (relative viability) ([2]; trisaccharide 4 mM) | relative binding (binding of mAb84 divided by binding of mAb85 to the same glycans) ([3]; 9 glycans containing Fucα1-2Galβ1-3GlcNAc, RFU values) | binding to glycans in the glycan array ([3]; 465 glycans, V4.1 array, Alexa488 labeled secondary antibody) | koff [4] [s⁻¹] | kon [4] | cytotoxicity against IPSCs (IPSCs) | detection of expressed (glycosylated) PODXL [5] | mAb 84-mediated killing (FGF2-starved hESC) | binding reactivity compared to undifferentiated hESC (day 8 embyroid bodies) | detection of unglycosylated PODXL [6] | detection of unglycosylated PODXL ([6]; listed as mAb 84) | cytotoxicity against undifferentiated hESCs ([7]; WO 2007/102787) | incubation time to cell death of undifferentiated hESC ([7]; undifferentiated hESC) [min] | detection of PODXL from hESC (PODXL from hESC (HES-3)) | tumour formation (hESC) | mAb 84-mediated killing (day 22 EB)
1 | CC(=O)N[C@H]1C(O)O[C@H](CO)[C@@H](O)[C@@H]1O[C@@H]1O[C@H](CO)[C@H](O)[C@H](O)[C@H]1O[C@@H]1O[C@@H](C)[C@@H](O)[C@@H](O)[C@@H]1O (stereo partly shown) [Fucα1-2Galβ1-3GlcNAc] | dose dependently inhibit | reduction | abolished | abolished |  |  |  |  |  |  |  |  |  |  |  |  |  |  | 
2 | mAb84: IgM monoclonal antibody which specifically binds and kills undifferentiated human embryonic stem cells; antigen is PODXL (antibody, V domains shown, Synthetic sequenceVH chain of mAb 84; Synthetic sequence VL chain of mAb 84, antigen is PODXL) VH: QVQLQQSGGGLVQPGGSMKLSCVASGFTFSNYWMNWVRQSPEKGLEWVAEIRLKSNNYATHYAESVKGRFTISRDDSKSSVYLQMNNLRAEDTGIYYCTGERAWGQGTTVTVSS VL: DIELTQSPAIMSASPGEKVTMTCSASSSVNYMYWYQQKPGSSPRLLIYDTSNLASGVPVRFSGSGSGTSYSLTISRMEAEDAATYYCQQWSSYPYTFGGGTKLEIKR |  |  |  |  | at least 37 times | selectively bind | 0.0029 | 7.1 e4 M^−1 s^−1 | cytotoxic | does not bind | decrease | reduced | did not detect | does not bind | cytotoxic | ≤ 30 | detected | absence of tumour formation | loss
